Consider one substance from publication doi:10.1101/2021.12.08.471876.

The assay concerns the target purified recombinant GRP78 protein (GRP78-His) (human) (UniProt P11021). The assay is described as follows: ITC. Background: Isothermal titration calorimetry measures the heat released or taken up as one component is titrated into another.

Chain of HBV particles (P03146 whole entry, looked up): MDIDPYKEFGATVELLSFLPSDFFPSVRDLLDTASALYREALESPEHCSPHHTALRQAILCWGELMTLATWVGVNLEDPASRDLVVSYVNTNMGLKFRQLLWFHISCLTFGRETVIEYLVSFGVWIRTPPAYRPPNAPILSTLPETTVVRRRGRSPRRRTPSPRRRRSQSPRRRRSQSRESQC
Chain of HBV particles (P03138 whole entry, looked up): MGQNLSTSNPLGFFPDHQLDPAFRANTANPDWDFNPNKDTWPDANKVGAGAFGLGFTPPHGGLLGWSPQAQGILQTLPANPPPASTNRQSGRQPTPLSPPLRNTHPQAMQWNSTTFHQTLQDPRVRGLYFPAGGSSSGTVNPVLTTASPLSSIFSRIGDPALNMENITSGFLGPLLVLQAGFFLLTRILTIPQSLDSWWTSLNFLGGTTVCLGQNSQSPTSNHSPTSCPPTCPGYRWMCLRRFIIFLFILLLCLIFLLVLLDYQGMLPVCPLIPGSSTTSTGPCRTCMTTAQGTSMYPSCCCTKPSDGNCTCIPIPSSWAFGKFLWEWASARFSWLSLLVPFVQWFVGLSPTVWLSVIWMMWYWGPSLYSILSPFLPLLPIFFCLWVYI
Chain of purified recombinant GRP78 protein (GRP78-His) (human) (P11021 19-654): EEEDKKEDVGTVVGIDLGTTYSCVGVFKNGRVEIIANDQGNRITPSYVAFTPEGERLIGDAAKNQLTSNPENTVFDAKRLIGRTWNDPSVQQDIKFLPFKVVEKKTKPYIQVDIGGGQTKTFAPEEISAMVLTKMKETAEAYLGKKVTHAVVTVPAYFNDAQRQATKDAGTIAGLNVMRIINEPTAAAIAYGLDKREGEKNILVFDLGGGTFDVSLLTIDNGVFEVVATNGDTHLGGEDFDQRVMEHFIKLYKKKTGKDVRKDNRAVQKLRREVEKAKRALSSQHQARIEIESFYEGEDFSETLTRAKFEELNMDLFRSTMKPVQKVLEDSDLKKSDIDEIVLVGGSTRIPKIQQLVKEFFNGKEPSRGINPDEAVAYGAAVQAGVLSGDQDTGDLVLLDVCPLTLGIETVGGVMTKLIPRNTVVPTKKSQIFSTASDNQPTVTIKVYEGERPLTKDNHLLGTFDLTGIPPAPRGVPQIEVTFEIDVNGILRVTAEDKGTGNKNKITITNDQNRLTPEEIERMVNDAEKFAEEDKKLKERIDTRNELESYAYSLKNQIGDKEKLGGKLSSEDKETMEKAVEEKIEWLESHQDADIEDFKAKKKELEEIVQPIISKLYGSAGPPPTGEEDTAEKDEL

What is called Kd is a measure of binding affinity in units of concentration. Turning to “HBV particles (from UniProt P03138;P03146) (complex)”, the Kd is 75.6 µM.
